Data: paper doi:10.1101/2025.06.10.658980, “Structures reveal how the Cas1-2/3 integrase captures, delivers, and integrates foreign DNA into CRISPR loci” (bioRxiv, 2025)

B1: Cas2/3 fusion protein (type I-F, Pseudomonas aeruginosa PA14), untagged (enzyme)
chain: MNILLVSQCEKRALSETRRILDQFAERRGERTWQTPITQAGLDTLRRLLKKSARRNTAVACHWIRGRDHSELLWIVGDASRFNAQGAVPTNRTCRDILRKEDENDWHSAEDIRLLTVMAALFHDIGKASQAFQAKLRNRGKPMADAYRHEWVSLRLFEAFVGPGSSDEDWLRRLADKRETGDAWLSQLARDDRQSAPPGPFQKSRLPPLAQAVGWLIVSHHRLPNGDHRGSASLARLPAPIQSQWCGARDADAKEKAACWQFPHGLPFASAHWRARTALCAQSMLERPGLLARGPALLHDSYVMHVSRLILMLADHHYSSLPADSRLGDPNFPLHANTDRDSGKLKQRLDEHLLGVALHSRKLAGTLPRLERQLPRLARHKGFTRRVEQPRFRWQDKAYDCAMACREQAMEHGFFGLNLASTGCGKTLANGRILYALADPQRGARFSIALGLRSLTLQTGQAYRERLGLGDDDLAILVGGSAARELFEKQQERLERSGSESAQELLAENSHVHFAGTLEDGPLREWLGRNSAGNRLLQAPILACTIDHLMPASESLRGGHQIAPLLRLMTSDLVLDEVDDFDIDDLPALSRLVHWAGLFGSRVLLSSATLPPALVQGLFEAYRSGREIFQRHRGAPGRATEIRCAWFDEFSSQSSAHGAVTSFSEAHATFVAQRLAKLEQLPPRRQAQLCTVHAAGEARPALCRELAGQMNTWMADLHRCHHTEHQGRRISFGLLRLANIEPLIELAQAILAQGAPEGLHVHLCVYHSRHPLLVRSAIERQLDELLKRSDDDAAALFARPTLAKALQASTERDHLFVVLASPVAEVGRDHDYDWAIVEPSSMRSIIQLAGRIRRHRSGFSGEANLYLLSRNIRSLEGQNPAFQRPGFETPDFPLDSHDLHDLLDPALLARIDASPRIVEPFPLFPRSRLVDLEHRRLRALMLADDPPSSLLGVPLWWQTPASLSGALQTSQPFRAGAKERCYALLPDEDDEERLHFSRYEEGTWSNQDNLLRNLDLTYGPRIQTWGTVNYREELVAMAGREDLDLRQCAMRYGEVRLRENTQGWSYHPYLGFKKYN
notes: Two Cas2/3 subunits stand in the Cas1-2/3 heterohexamer, joined through the Cas2 homodimer; also called Cas3; Cas3a; source: E. coli BL21(DE3), co-expressed with StrepII-Cas1 from a single plasmid; in lysate, and purified with Cas1 (StrepTrap HP, Superdex 200)
B2: Cas1 (type I-F, Pseudomonas aeruginosa PA14), StrepII-tagged (enzyme)
chain: MDDISPSELKTILHSKRANLYYLQHCRVLVNGGRVEYVTDEGRHSHYWNIPIANTTSLLLGTGTSITQAAMRELARAGVLVGFCGGGGTPLFSANEVDVEVSWLTPQSEYRPTEYLQRWVGFWFDEEKRLVAARHFQRARLERIRHSWLEDRVLRDAGFAVDATALAVAVEDSARALEQAPNHEHLLTEEARLSKRLFKLAAQATRYGEFVRAKRGSGGDPANRFLDHGNYLAYGLAATATWVLGIPHGLAVLHGKTRRGGLVFDVADLIKDSLILPQAFLSAMRGDEEQDFRQACLDNLSRAQALDFMIDTLKDVAQRSTVSA
notes: Four Cas1 subunits (two homodimers) stand in the Cas1-2/3 heterohexamer; also called StrepII-tagged Cas1; Cas1a; source: E. coli BL21(DE3), co-expressed with Cas2/3 from a single plasmid; in lysate, and purified (StrepTrap HP, Superdex 200); not shown: StrepII, N-terminal, kept

Tests used:
[1] = molecular target: the molecule itself; assay: cryo-EM structure; Cas1-2/3 capture complex without nucleic acid, 12.8 uM, 3.3 Å
[2] = molecular target: B2; assay: SEC; affinity-purified Cas1-2/3 on Superdex 200 in 10 mM HEPES pH 7.5, 500 mM potassium glutamate, 10% glycerol; single peak, estimated ~380 kDa; settings: both partners purified

B1
stoichiometry N [1]: 2 | stoichiometry N [2]: 2 Cas1 per Cas2/3 (4:2)

B2
stoichiometry N [1]: 2
